This passage reports self-cleavage results from the RNAGym collection of RNA variant scans (doi:10.7554/elife.80360).

To fix the notation:
B1: HDV Ribozyme (parent)
chain: GGCCGGCAUGGUCCCAGCCUCCUCGCUGGCGCCGGCUGGGCAACAUUCCGAGGGGACCGUCCCCUCGGUAAUGGCGAAUGGGACCCA

Variants of B1 are the subject of the data set. The data set is described as follows: self-cleavage, relative activity (ratio to wild type); higher = more cleavage; co-transcriptional.
As to G55U C75U, the self-cleavage was 0.168.

Consider G55U C75G, for which the self-cleavage worked out at 0.0707. A56C G81U: the self-cleavage worked out at 0.277. For the variant G55U A87U, the self-cleavage turned out to be 1.1.

In the case of G55U U79C, the self-cleavage was found to be 0.395.

In the case of G55U U69G, the self-cleavage was 0.933. To G55U U69C belongs 1; to G55U U69A, 0.869; to A56U G67U, 0.988. For the variant A56C C62G, the self-cleavage turned out to be 0.458. With A56C C62U the figure was 1.02; with A56C G74U, 0.708; with A56C G74A, 0.65. In the case of A56U G76A, the self-cleavage is 0.939. Consider G55C U79A, for which the self-cleavage is 0.527. G55C U69C: the self-cleavage came out at 1. To G55C U69G belongs 0.984; to G55U G74A, 0.668.

Turning to G55U G82U, the self-cleavage is 0.426. To G55U G82C belongs 0.233; to A56C C57U, 1.08. Take A56U C63U: the self-cleavage was 0.799. Turning to A56U C63G, the self-cleavage was 0.815. As to A56G G59A, the self-cleavage was found to be 0.849. For A56C A78U, the self-cleavage amounted to 0.499. Regarding A56C A78C, the self-cleavage turned out to be 0.111. With A56G A87C the figure was 0.993; with G55U U65A, 0.891. With G55U U65G, the self-cleavage turned out to be 0.847.

On to G55U G73C, for which the self-cleavage came out at 0.499. Consider G55U G73U, for which the self-cleavage worked out at 0.295. In the case of G55U A56G, the self-cleavage is 0.912. With A56G A78G, the self-cleavage is 0.615.

Consider A56U A87C, for which the self-cleavage amounted to 0.963. On to A56U A87U, for which the self-cleavage is 1.08.

Consider G55U C85A, for which the self-cleavage came out at 1.09.

For the variant G55U C85G, the self-cleavage is 0.927.

As for G55U C85U, the self-cleavage amounted to 0.92.

With A56U G74A, the self-cleavage turned out to be 0.681. For A56U G74U, the self-cleavage turned out to be 0.718. With A56U C85G, the self-cleavage stood at 0.982. Regarding A56U C85A, the self-cleavage came out at 0.966. Consider A56U C84U, for which the self-cleavage is 0.808. For the variant G55U A83U, the self-cleavage amounted to 0.409.

As for G55U A83G, the self-cleavage amounted to 0.842. For G55U C64U, the self-cleavage came out at 1.05. With A56G C58U the figure was 0.862; with A56G C58A, 1.12; with G55U C84U, 0.743. In the case of G55U C84G, the self-cleavage amounted to 0.546.

Regarding A56C U72C, the self-cleavage amounted to 0.539. In the case of G55U C58U, the self-cleavage stood at 1.05.

Take A56C A77U: the self-cleavage stood at 0.437. As to G55U U60A, the self-cleavage was determined as 0.886. In the case of G55U A77U, the self-cleavage is 0.453. For G55U A77G, the self-cleavage stood at 0.607. As to A56C A71G, the self-cleavage worked out at 0.98.

Regarding A56G G76A, the self-cleavage came to 0.96. Turning to A56U A77G, the self-cleavage was found to be 1.01. A56G A71C: the self-cleavage amounted to 0.534. Consider A56G G74A, for which the self-cleavage was 0.45.

As to A56U G59C, the self-cleavage was found to be 1.01. For the variant G55U G59A, the self-cleavage amounted to 1.14. In the case of A56C, the self-cleavage came out at 1. In the case of A56U, the self-cleavage was determined as 0.989. On to A56G, for which the self-cleavage stood at 0.995. With A56C C61G the figure was 1.05. On to A56U A70U, for which the self-cleavage was 1.09. To A56U G68A belongs 0.819; to A56U G68U, 1.01.

Consider A56G A70U, for which the self-cleavage was 1.1. Consider G55U C57A, for which the self-cleavage is 1.12. With G55U C57U, the self-cleavage stood at 1.11.

Regarding A56G C57U, the self-cleavage worked out at 0.985.

Turning to A56U A71C, the self-cleavage stood at 0.966.

Regarding A56G G67C, the self-cleavage amounted to 1.05. For G55C U72C, the self-cleavage is 0.798.

Take A56C C84U: the self-cleavage was determined as 0.718. Take A56C C84A: the self-cleavage was determined as 0.95. For A56C C63A, the self-cleavage stood at 1.04. For A56C C63U, the self-cleavage is 1.01. Regarding A56G C64A, the self-cleavage turned out to be 0.764. A56G C64U: the self-cleavage came to 0.563.

Turning to G55U G68C, the self-cleavage is 0.744. As for G55U G68U, the self-cleavage worked out at 1. Regarding G55U C62G, the self-cleavage worked out at 0.793. As to A56G G68A, the self-cleavage worked out at 0.96. As to G55U G76A, the self-cleavage amounted to 1.17. G55U G76C: the self-cleavage was found to be 1.08. With G55U G76U, the self-cleavage is 0.993. With A56G C75G, the self-cleavage came out at 0.175.

On to A56G C75A, for which the self-cleavage worked out at 0. Turning to A56C U79G, the self-cleavage was 0.997.

As to A56C U79A, the self-cleavage came out at 0.554. Regarding A56C G59A, the self-cleavage turned out to be 1.05. To A56C G59U belongs 0.848; to G55U G67U, 1.07. In the case of G55U A78U, the self-cleavage is 0.224. Consider G55U A78G, for which the self-cleavage was 0.684.

As for A56C G67C, the self-cleavage came out at 1.01. In the case of A56C G67U, the self-cleavage is 0.814.

On to G55C G81A, for which the self-cleavage was determined as 0.496.

In the case of G55C G81C, the self-cleavage came to 0.141. With G55U A71U the figure was 0.786; with G55U A71G, 1.04. For the variant A56U A78G, the self-cleavage worked out at 0.684. Regarding G55U C61U, the self-cleavage was 0.859. With G55U, the self-cleavage came out at 1.01. With A56G G81A the figure was 0.665; with A56G G81C, 0.198.

With G55U C86A, the self-cleavage was found to be 0.911. For the variant G55U C86U, the self-cleavage was determined as 0.923. To A56U C86A belongs 1.01. For the variant A56U C86U, the self-cleavage came to 0.906. Regarding A56U C86G, the self-cleavage came to 1.19.

With A56G U60C, the self-cleavage came out at 1.21.

As to A56G U60A, the self-cleavage was determined as 0.914. A56G C62A: the self-cleavage was 0.467. Turning to A56G C62G, the self-cleavage is 0.731.

A56G C62U: the self-cleavage stood at 0.912. Turning to G55U A70U, the self-cleavage is 1.02. As to A56G U72G, the self-cleavage is 0.677. As for G55U U72G, the self-cleavage was determined as 0.652. For the variant A56C C58A, the self-cleavage was found to be 0.923. As to G55C G80A, the self-cleavage was found to be 0.34. With A56C C64U the figure was 1.12; with A56C C64A, 0.911. Take A56C U65C: the self-cleavage was determined as 1.33. On to A56C A83C, for which the self-cleavage came to 0.494.

For A56C A83U, the self-cleavage is 0.192. As for A56G C85G, the self-cleavage was found to be 0.831. In the case of A56G C85A, the self-cleavage came to 0.95. For the variant A56G C85U, the self-cleavage was 1.02. Regarding A56C G73C, the self-cleavage came out at 0.536. With A56U C62U the figure was 0.847; with A56U C62A, 1.05. Turning to G55U C63U, the self-cleavage was found to be 0.997. In the case of G55U C63G, the self-cleavage is 0.695.

On to A56U C64G, for which the self-cleavage is 0.882. To A56U C64U belongs 1.07; to A56U C64A, 0.899; to A56G G82U, 0.244. With A56G G82A the figure was 0.277.

As to A56G C84A, the self-cleavage stood at 1.16. On to A56G C84U, for which the self-cleavage is 0.973. For the variant G55U C66U, the self-cleavage was determined as 0.973. As for G55U C66A, the self-cleavage was 0.986. With A56U C58U the figure was 0.985; with A56C U60A, 0.937. With A56C U60G the figure was 0.68; with A56C G76U, 1.19; with A56G A77G, 1.11.

As for A56C C75U, the self-cleavage worked out at 0.0723. For A56C C75G, the self-cleavage was determined as 0.115. Take A56C C75A: the self-cleavage came to 0.116. For the variant A56C G80A, the self-cleavage stood at 0.292. As to A56C G80C, the self-cleavage was 0.189. Consider A56G U69C, for which the self-cleavage came out at 1.32. Regarding A56G U69A, the self-cleavage was determined as 0.906. Consider A56C G68A, for which the self-cleavage is 1.11. Regarding A56C G68U, the self-cleavage came to 1.08. As for A56C U69C, the self-cleavage worked out at 1.09.

Regarding A56C U69G, the self-cleavage came out at 0.987.

Consider A56C U69A, for which the self-cleavage stood at 0.776.

Turning to A56G C86U, the self-cleavage was 0.987. For the variant A56G A83C, the self-cleavage came to 0.0639.

A56C A87C: the self-cleavage turned out to be 1.04.
